Source: US20220002357A1

Tests used:
[1] = molecular target: mu-opioid receptor fused to Gαi1-RLuc8 chimera (MOR-Gi1RLuc) (human) (UniProt P63096); experiment: ADSoRB radiotracer elution from microsomal membranes with GPPNHP, scintillation counting
[2] = molecular target: mu-opioid receptor unfused (MOR); experiment: as above
[3] = molecular target: µ-opioid receptor (MOR) fused to Gαi1 protein (MOR-Gi1) (human) (UniProt P63096); experiment: ADSoRB radiotracer elution from microsomal membranes with GPPNHP, scintillation counting (FIG. 2B)
[4] = molecular target: µ-opioid receptor (MOR) fused to Gαi1 protein (MOR-Gi1) (human) (UniProt P63096); experiment: ADSoRB radiotracer elution from microsomal membranes with buffer control, scintillation counting (FIG. 2B)
[5] = molecular target: mu-opioid receptor fused to Gαi1-RLuc8 chimera (MOR-Gi1RLuc) (human) (UniProt P63096); experiment: ADSoRB radiotracer adsorption to microsomal membranes, scintillation counting
[6] = molecular target: mu-opioid receptor unfused (MOR); experiment: as above
neurotensin receptor = experiment: cell-based or functional assay

Sequence of mu-opioid receptor fused to Gαi1-RLuc8 chimera (MOR-Gi1RLuc) (human) (P63096 whole entry, change not shown, the tested form may be a part): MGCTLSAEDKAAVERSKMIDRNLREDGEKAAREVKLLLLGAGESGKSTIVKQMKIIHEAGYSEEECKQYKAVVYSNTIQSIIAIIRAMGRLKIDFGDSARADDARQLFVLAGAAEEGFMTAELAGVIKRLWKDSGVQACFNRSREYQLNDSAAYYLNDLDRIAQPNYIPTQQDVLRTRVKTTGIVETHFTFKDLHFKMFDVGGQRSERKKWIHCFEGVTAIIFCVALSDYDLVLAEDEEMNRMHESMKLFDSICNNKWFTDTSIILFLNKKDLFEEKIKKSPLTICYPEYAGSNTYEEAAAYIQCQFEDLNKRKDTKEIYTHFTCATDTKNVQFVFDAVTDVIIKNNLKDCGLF
Sequence of µ-opioid receptor (MOR) fused to Gαi1 protein (MOR-Gi1) (human) (P63096 whole entry, the tested form may be a part): as the sequence (P63096 whole entry, change not shown, the tested form may be a part) above

| NET BRET response at GαZ, 96-well plate (neurotensin receptor) | NET BRET response at GαZ, 384-well plate (neurotensin receptor) | Neurotensin potency, GαZ-114-Rluc8/Gβ3γ1-GFP2 BRET biosensor, 96-well plate (neurotensin receptor) [nM] | Neurotensin potency, GαZ-114-Rluc8/Gβ3γ1-GFP2 BRET biosensor, 384-well plate (neurotensin receptor) [nM] | Substance | fraction of agonist eluted upon GPPNHP treatment (% of total agonist) (% of total agonist) [1] | fraction of agonist eluted upon GPPNHP treatment (% of total agonist) (% of total agonist) [2] | elution upon complex dissociation/uncoupling with GPPNHP (% of total agonist added) (% of total agonist added) [3] | elution with buffer control (% of total agonist added) (% of total agonist added) [4] | unbound tracer (%) (% unbound tracer) [5] | unbound tracer (%) (% unbound tracer) [6] |
| --- | --- | --- | --- | --- | --- | --- | --- | --- | --- | --- |
| – | – | – | – | [3H]DAMGO (peptide) | 7 | 0.8 | 30 | 2 | 23 | 67 |
| 0.495 | 0.625 | 1.85 | 1.68 | neurotensin peptide (8-13) (from UniProt P30990 31-36) | – | – | – | – | – | – |
